In patent US20170355774A1 (Regeneron, published 2017):

Assays:
[1] = target: T1, human GITR (amino acids M1-V241, NCBI Accession #NP_004186.1) expressed on cells (human, UniProt Q9Y5U5 26-241); assay: ECL cell binding, hGITR/HEK293-D9
T1 construct: also called hGITR; hGITR/HEK293-D9
T1 sequence: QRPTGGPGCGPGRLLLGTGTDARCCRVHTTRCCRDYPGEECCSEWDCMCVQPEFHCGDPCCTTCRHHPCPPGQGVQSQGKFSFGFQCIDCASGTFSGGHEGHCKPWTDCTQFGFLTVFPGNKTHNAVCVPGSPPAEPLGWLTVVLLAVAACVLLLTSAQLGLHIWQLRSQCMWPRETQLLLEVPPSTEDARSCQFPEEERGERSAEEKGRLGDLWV
Method in brief: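 Cells blocked with 2% BSA, then antibody dilutions from 1.7 pM to 100 nM added 1 h at RT. Bound antibody detected with SULFO-TAG anti-human kappa antibody, electrochemiluminescence read, RLU fitted by four-parameter logistic; signal at 100 nM on hGITR cells versus parental cells also recorded.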

[2] = target: T1, human GITR (amino acids M1-V241, NCBI …); assay: cell-based or functional assay
hGITR.mmh = target: T2, hGITR.mmh (human); assay: SPR 37C, mAb capture
T2 construct: soluble monomeric construct; also called human (h) GITR.mmh; monomeric human GITR
T2 chain: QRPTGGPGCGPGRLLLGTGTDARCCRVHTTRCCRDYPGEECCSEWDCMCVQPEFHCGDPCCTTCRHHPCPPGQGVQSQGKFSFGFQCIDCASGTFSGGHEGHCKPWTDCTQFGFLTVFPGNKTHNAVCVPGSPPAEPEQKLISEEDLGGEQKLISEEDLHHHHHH

hGITR.mFc = target: T3, hGITR.mFc (human); assay: SPR 37C, mAb capture
T3 construct: soluble dimeric construct with mouse Fc; also called dimeric human GITR
T3 chain: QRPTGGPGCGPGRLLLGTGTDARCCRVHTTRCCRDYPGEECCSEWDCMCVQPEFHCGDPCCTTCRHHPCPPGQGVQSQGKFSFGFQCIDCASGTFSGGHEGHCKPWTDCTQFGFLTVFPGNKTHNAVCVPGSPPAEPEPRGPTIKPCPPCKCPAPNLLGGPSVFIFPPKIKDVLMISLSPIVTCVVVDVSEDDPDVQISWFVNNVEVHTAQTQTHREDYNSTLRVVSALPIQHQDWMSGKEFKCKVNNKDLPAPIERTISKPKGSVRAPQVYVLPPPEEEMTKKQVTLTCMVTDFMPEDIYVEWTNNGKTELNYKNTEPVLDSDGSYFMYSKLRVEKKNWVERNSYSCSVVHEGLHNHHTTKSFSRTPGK

mfGITR.mmh = target: T4, mfGITR.mmh (Macaca fasicularis); assay: SPR 37C, mAb capture
T4 construct: soluble monomeric construct; also called Macaca fasicularis (mf) GITR.mmh; cynomolgus GITR protein
T4 chain: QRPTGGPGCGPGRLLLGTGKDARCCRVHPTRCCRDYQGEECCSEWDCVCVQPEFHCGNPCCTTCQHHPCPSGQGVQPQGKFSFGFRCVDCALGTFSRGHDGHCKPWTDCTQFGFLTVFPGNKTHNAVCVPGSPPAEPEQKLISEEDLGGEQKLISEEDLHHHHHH

[3] = target: T1, human GITR (amino acids M1-V241, NCBI …); assay: cell-based or functional assay; remark: listed apart in the source
[4] = target: T1, human GITR (amino acids M1-V241, NCBI …); assay: cell-based or functional assay; remark: listed apart in the source
[5] = target: T1, human GITR (amino acids M1-V241, NCBI …); assay: cell-based or functional assay; remark: listed apart in the source
[6] = target: T1, human GITR (amino acids M1-V241, NCBI …); assay: cell-based or functional assay; remark: listed apart in the source
[7] = target: T1, human GITR (amino acids M1-V241, NCBI …); assay: cell-based or functional assay; remark: listed apart in the source
[8] = target: T1, human GITR (amino acids M1-V241, NCBI …); assay: cell-based or functional assay; remark: listed apart in the source

B1: H4H14536P2 (antibody, human IgG4, V domains shown)
VH: QVQLQESGPGLVKPSETLSLTCIVSGGSISGYFWNWIRQPPGKGLEWIGYIYYSGTTIYNPSLKSRFTISLDTSKNQFSLKLTSVTAADTAVYYCARESYNPSPRYFDHWGQGTLVTVSS
VL: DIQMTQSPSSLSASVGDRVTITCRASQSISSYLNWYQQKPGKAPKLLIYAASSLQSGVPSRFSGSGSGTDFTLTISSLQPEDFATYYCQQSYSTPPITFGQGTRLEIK
notes: human IgG4 (H4H)
Average Signal (RLU) at 100 nM [1]: 8960 RLU
EC50 [1]: 0.36 nM
% Activation, NF-kB-Luc, non-anchored [2]: 20%
% Blocking, NF-kB-Luc, non-anchored [2]: 90%
EC50, hGITR activation, NF-kB-Luc, non-anchored [2]: 1.1 nM
IC50, blocking of hGITRL stimulation, NF-kB-Luc, non-anchored [2]: 2 nM
Kd (hGITR.mmh): 23 nM
koff (hGITR.mmh): 0.00976 s⁻¹
kon (hGITR.mmh): 424000 M⁻¹ s⁻¹
t½ (hGITR.mmh): 1.2 min
Kd (hGITR.mFc): 0.173 nM
koff (hGITR.mFc): 0.000219 s⁻¹
kon (hGITR.mFc): 1.26e+06 M⁻¹ s⁻¹
t½ (hGITR.mFc): 52.7 min
Kd (mfGITR.mmh): 142 nM
koff (mfGITR.mmh): 0.0147 s⁻¹
kon (mfGITR.mmh): 104000 M⁻¹ s⁻¹
t½ (mfGITR.mmh): 0.8 min
fold activation, T-cell proliferation, 22 nM, non-anchored, donor 1 [3]: 6.2 fold
fold activation, T-cell proliferation, 22 nM, non-anchored, donor 2 [3]: 4.2 fold
fold activation, T-cell proliferation, 22 nM, non-anchored, donor 3 [3]: 10.1 fold
fold activation, T-cell proliferation, 22 nM, non-anchored, donor 4 [3]: 23.4 fold
fold activation, T-cell proliferation, 22 nM, non-anchored, mean [3]: 11 fold
EC50, hGITR activation, NF-kB-Luc, FcgR anchored [4]: 0.01 nM
Fold Activation over basal signal, NF-kB-Luc, FcgR anchored [4]: 5 fold
IC50, blocking of hGITRL stimulation, NF-kB-Luc, FcgR anchored [4]: 0.2 nM
fold activation, T-cell proliferation, plate-bound Ab 10.6 nM, donor 1 [5]: 3 fold
fold activation, T-cell proliferation, plate-bound Ab 10.6 nM, donor 2 [5]: 24 fold
fold activation, T-cell proliferation, plate-bound Ab 10.6 nM, donor 3 [5]: 24 fold
fold activation, T-cell proliferation, plate-bound Ab 10.6 nM, donor 4 [5]: 25 fold
fold activation, T-cell proliferation, plate-bound Ab 10.6 nM, donor 5 [5]: 24 fold
fold activation, T-cell proliferation, plate-bound Ab 10.6 nM, donor 6 [5]: 47 fold
fold activation, T-cell proliferation, plate-bound Ab 10.6 nM, donor 7 [5]: 26 fold
fold activation, T-cell proliferation, plate-bound Ab 10.6 nM, donor 8 [5]: 16 fold
fold activation, T-cell proliferation, plate-bound Ab 10.6 nM, mean [5]: 23 fold
fold activation, T-cell proliferation, 33 nM, FcgR anchored, donor 1 [6]: 1.3 fold
fold activation, T-cell proliferation, 33 nM, FcgR anchored, donor 2 [6]: 6.3 fold
fold activation, T-cell proliferation, 33 nM, FcgR anchored, donor 3 [6]: 1.5 fold
fold activation, T-cell proliferation, 33 nM, FcgR anchored, donor 4 [6]: 2.7 fold
fold activation, T-cell proliferation, 33 nM, FcgR anchored, donor 5 [6]: 15.7 fold
fold activation, T-cell proliferation, 33 nM, FcgR anchored, mean [6]: 5.5 fold
EC50, T-cell proliferation, non-anchored, average [7]: 8.3 nM
EC50, T-cell proliferation, non-anchored, donor 1 [7]: 12.2 nM
EC50, T-cell proliferation, non-anchored, donor 2 [7]: 6.4 nM
EC50, T-cell proliferation, non-anchored, donor 3 [7]: 9 nM
EC50, T-cell proliferation, non-anchored, donor 4 [7]: 5.7 nM
EC50, T-cell proliferation, FcgR anchored, donor 1 [8]: 1.2 nM
EC50, T-cell proliferation, FcgR anchored, donor 2 [8]: 0.5 nM
EC50, T-cell proliferation, FcgR anchored, donor 3 [8]: 1.3 nM
EC50, T-cell proliferation, FcgR anchored, donor 4 [8]: 11.2 nM
EC50, T-cell proliferation, FcgR anchored, donor 5 [8]: 1.6 nM
EC50, T-cell proliferation, FcgR anchored, mean [8]: 3.2 nM
